In paper PMC3498625:

Biological target: Wza from E. coli K30, purified DDM-solubilised octameric complex (E. coli K30)
Test: cryo-EM structure

“Wza from E. coli K30, purified DDM-solubilised octameric complex (natural protein)” gave a stoichiometry N of 8.
